This is an account of results in US20090175786A1.

Where no end group is shown, it is not given here.

For this assay, the target named is T1, neuromedin-B preferring receptor (NMB-R) of C6 rodent glioblastoma cells (rodent), P24053.
T1 chain: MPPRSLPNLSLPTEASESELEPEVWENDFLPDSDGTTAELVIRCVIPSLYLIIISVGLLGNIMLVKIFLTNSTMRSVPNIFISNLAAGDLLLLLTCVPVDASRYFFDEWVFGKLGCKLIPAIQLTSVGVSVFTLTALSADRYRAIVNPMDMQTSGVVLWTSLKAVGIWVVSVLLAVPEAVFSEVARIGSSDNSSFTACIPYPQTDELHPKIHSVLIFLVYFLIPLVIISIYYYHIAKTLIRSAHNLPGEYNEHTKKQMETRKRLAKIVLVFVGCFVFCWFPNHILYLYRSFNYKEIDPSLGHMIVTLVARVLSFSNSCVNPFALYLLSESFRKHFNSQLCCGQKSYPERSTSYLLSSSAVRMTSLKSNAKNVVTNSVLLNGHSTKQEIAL
As to the kind of experiment: 125I-NMB competition, C6 cells.

As usually defined, the IC50 is the point on the concentration scale where inhibition reaches its midpoint. The low end stands for greater potency in that assay, the high end for weaker potency in that assay. In turn, EQRYGNQWAVGHLM-NH2 (also: name truncated at 'p…', N-terminal modification unresolved) [p…-NH2] came in with a 50% inhibitory concentration (IC50) of 3.36 nM.
